“And” between values parts separate entries of the source, which are not always exact repeats. Identical values can stand only once. Like-named read-outs stand apart in the source and are kept apart here.
Columns and labels:
human alpha-synuclein [1] = molecular target: T1, human alpha-synuclein (human, UniProt P37840 1-140); test: SPR BIAcore 3000, antibody captured by goat anti-human IgG on CM5 chip, human alpha-synuclein as analyte; calculated binding constants [continued) C]
human alpha-synuclein [2] = molecular target: T1, human alpha-synuclein; test: as above; remark: listed apart in the source
human gamma-synuclein [3] = molecular target: T2, human gamma-synuclein (human, UniProt O76070 1-127); test: Octet (ForteBio), antibody coupled to amine-reactive sensors, synuclein in solution [continued), Human gamma-syn]
T2 construct: Screening ligand; also called Gamma Panel
T2 sequence (O76070 whole entry): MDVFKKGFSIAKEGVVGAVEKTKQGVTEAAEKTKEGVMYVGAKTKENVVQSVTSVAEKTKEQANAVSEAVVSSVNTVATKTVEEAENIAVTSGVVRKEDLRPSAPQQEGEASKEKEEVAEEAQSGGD

human beta-synuclein [4] = molecular target: T3, human beta-synuclein (human, UniProt Q16143 1-134); test: Octet (ForteBio), antibody coupled to amine-reactive sensors, synuclein in solution [continued), Human beta-syn]
T3 construct: Screening ligand; also called Beta Panel
T3 sequence (Q16143 whole entry): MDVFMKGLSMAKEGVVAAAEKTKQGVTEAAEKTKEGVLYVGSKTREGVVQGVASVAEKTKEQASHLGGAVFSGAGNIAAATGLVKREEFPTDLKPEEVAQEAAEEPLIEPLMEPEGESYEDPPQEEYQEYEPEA

human alpha-synuclein [5] = molecular target: T1, human alpha-synuclein; test: SPR Biacore 3000, IgG captured by anti-human IgG on CM5 chip
human alpha-synuclein [6] = molecular target: T1, human alpha-synuclein; test: SPR Biacore 3000, synuclein ligand format
human alpha-synuclein [7] = molecular target: T1, human alpha-synuclein; test: SPR Biacore 3000, IgG captured by anti-human IgG on CM5 chip; remark: listed apart in the source
human beta-synuclein [8] = molecular target: T3, human beta-synuclein; test: Octet (ForteBio), antibody coupled to amine-reactive sensors, synuclein in solution [Human beta-syn]
Text: (§1) Amine reactive sensors (ForteBio, art. no. 18-0008) were used for immobilization of HuMabs. […] Activated sensors were immobilized with HuMabs during 600 seconds.

human gamma-synuclein [9] = molecular target: T2, human gamma-synuclein; test: Octet (ForteBio), antibody coupled to amine-reactive sensors, synuclein in solution [continued), Human gamma-syn]; remark: listed apart in the source
Text: as §1

human alpha-synuclein [10] = molecular target: T1, human alpha-synuclein; test: SPR BIAcore T200, human alpha-synuclein immobilised, antibody as analyte, 1:1 binding fit
human alpha-synuclein [11] = molecular target: T1, human alpha-synuclein; test: SPR BIAcore 3000, antibody captured by goat anti-human IgG on CM5 chip, human alpha-synuclein as analyte; calculated binding constants [continued) C]; remark: listed apart in the source

Row | Binder | KD improvement (human alpha-synuclein [6]) [fold] | Ka (human alpha-synuclein [6]) [M⁻¹] | koff (human alpha-synuclein [6]) [s⁻¹] | kon (human alpha-synuclein [6]) [M⁻¹ s⁻¹] | KD improvement (human alpha-synuclein [7]) [fold] | Ka (human alpha-synuclein [7]) [M⁻¹] | Kd (human alpha-synuclein [7]) [nM] | koff (human alpha-synuclein [7]) [s⁻¹] | kon (human alpha-synuclein [7]) [M⁻¹ s⁻¹] | further results
1 | 9E4 (antibody, V domains shown, Generated from the VH and VL of hybridoma PTA-8221; also called comparator antibody 9E4) VH: EVQLVESGGGLVQPGGSLRLSCAASGFTFSNYGMSWVRQAPGKGLEWVASISSGGGSTYYPDNVKGRFTISRDNAKNSLYLQMNSLRAEDTAVYYCARGGAGIDYWGQGTLVTVSS VL: DIQMTQSPSSLSASVGDRVTITCKSIQTLLYSSNQKNYLAWFQQKPGKAPKLLIYWASIRKSGVPSRFSGSGSGTDFTLTISSLQPEDLATYYCQQYYSYPLTFGGGTKLEIKR | – | – | – | – | – | – | – | – | – | Ka (human alpha-synuclein [1]): 2.58e+08 M⁻¹; Kd (human alpha-synuclein [1]): 3.88 nM
2 | GM285 (antibody, V domains shown, Human IgG1/kappa) VH: EVQLLESGGGLVQPGGSLRLSCAASGFTFSRFTMTWVRQAPGKGLEWVSAISGSGGGTSYADSVKGRLTVSRDNSKNTLYLQMNSLRAEDTAVYYCAKNWAPFDYWGQGTLVT VL: not shown | – | – | – | – | – | – | – | – | – | Ka (human alpha-synuclein [2]): 2.33e+08 M⁻¹; Kd (human alpha-synuclein [2]): 4.3 nM; binding result (human gamma-synuclein [3]): no binding; binding result (human beta-synuclein [4]): no binding
3 | 2E6-HLD-1 (antibody, V domains shown, Humanized 2E6 tested as IgG; also called Humanized HLD-1) VH: QVQLVQSGAEVKKPGASVKVSCKASGYTFTSYWMHWMRQAPGQGLEWIGRIDPNSGTTKYNVNFKTRATLTVDKSTSTAYMELSSLRSEDTAVYYCARLGHYGNLYAMDYWGQGTLVT VL: EIVLTQSPATLSLSPGERATLSCSASSSVSYMHWYQQKPGQAPRRWIYDTSKLASGVPARFSGSGSGTDYTLTISSLEPEDFAVYYCQQWSSNPPTFGQGTKLEIKR | 2 | 5.81e+08 | 0.000212 | 123000 | 2.5 | 4.4e+07 | 22.7 | 0.000944 | 41600 | KD improvement (human alpha-synuclein [5]): 2.5 fold; Ka (human alpha-synuclein [5]): 4.4e+07 M⁻¹; Kd (human alpha-synuclein [5]): 22.7 nM; koff (human alpha-synuclein [5]): 0.000944 s⁻¹; kon (human alpha-synuclein [5]): 41600 M⁻¹ s⁻¹; Kd (human alpha-synuclein [6]): 1.72 nM
4 | 9C12 (antibody, V domains shown) VH: QVQLVQSGAEVKKPGASVKVSCKASGYTFTSYWMHWMRQAPGQGLEWIGRIDPNSGTTKYNVNIKTRATLTVDKSTSTAYMELSSLRSEDTAVYYCARLGHYGNLYAMDYWGQGTLVT VL: EIVLTQSPATLSLSPGERATLSCSASSSVSYMHWYQQKPGQAPRRLIYDTSKLASGVPARFSGSGSGTDYTLTISSLEPEDFAVYYCQQWSSNPPTFGQGTKLEIK | – | – | – | – | 10 | 1.78e+08 | 5.62 | 0.000278 | 49500 | –
5 | 8D9 (antibody, V domains shown) VH: QVQLVQSGAEVKKPGASVKVSCKASGYTFTSYWMHWMRQAPGQGLEWIGRIDPNSGTTKYNVNFKTRATLTVDKSTSTAYMELSSLRSEDTAVYYCARLGHYGNLYAKDYWGQGTLVT VL: EIVLTQSPATLSLSPGERATLSCSASSSVSYIHWYQQKPGQAPRRWIYDTSKLASGVPARFSGSGSGTDYTLTISSLEPEDFAVYYCQQWSSNPPTFGQGTKLEIK | – | – | – | – | 8.7 | 1.53e+08 | 6.52 | 0.000483 | 74100 | –
6 | 2E6-HLD-2 (antibody, V domains shown, Humanized 2E6) VH: QVQLVQSGAEVKKPGASVKVSCKASGYTFTSYWMHWVRQAPGQGLEWIGRIDPNSGTTKYNVNFKTRATLTVDKSTSTAYMELSSLRSEDTAVYYCARLGHYGNLYAMDYWGQGTLVT VL: EIVLTQSPATLSLSPGERATLSCSASSSVSYMHWYQQKPGQAPRRWIYDTSKLASGVPARFSGSGSGTDYTLTISSLEPEDFAVYYCQQWSSNPPTFGQGTKLEIKR | 1 | 2.04e+08 | 0.000285 | 58000 | – | – | – | – | – | Kd (human alpha-synuclein [6]): 4.91 nM
7 | 2E6 HLD 3 (antibody, V domains shown) VH: QVQLVQSGAEVKKPGASVKVSCKASGYTFTSYWMHWMRQAPGQGLEWIGRIDPNSGTTKYNVNFKTRVTLTVDKSTSTAYMELSSLRSEDTAVYYCARLGHYGNLYAMDYWGQGTLVT VL: EIVLTQSPATLSLSPGERATLSCSASSSVSYMHWYQQKPGQAPRRWIYDTSKLASGVPARFSGSGSGTDYTLTISSLEPEDFAVYYCQQWSSNPPTFGQGTKLEIKR | 1 | 1.88e+08 | 0.00026 | 48900 | – | – | – | – | – | –
8 | 7C4 (antibody, V domains shown) VH: QVQLVQSGAEVKKPGASVKVSCKASGYTFTRYWMHWMRQAPGQGPEWIGRIDPNSGTTKYNVNFKTRATLTVDKSTSTAYMELSSLRSEDTAVYYCARLGHYGNLYAMDYWGQGTLVT VL: EIVLTQSPATLSLSPGERATLSCSASSSVSFMHWYQQKPGQAPRRWIYDTSKLASGVPARFSGSGSGTDYTLTISSLEPEDFAVYYCQQWSSNPPTFGQGTKLEIK | – | – | – | – | 7 | 1.23e+08 | 8.12 | 0.000997 | 123000 | –
9 | ch2E6 (antibody, V domains shown, also called chimeric 2E6) VH: QVQLQQPGAELVKPGASVKLSCTASGYTFTSYWMHWMKQRPGRGLEWIGRIDPNSGTTKYNVNFKTKATLTVDKPSSTAYMHLSSLTSEDSAVYYCARLGHYGNLYAMDYWGQGTSVT VL: QIVLTQSPAIMSASPGEKVTMTCSASSSVSYMHWYQQKSGTSPKRWIYDTSKLASGVPTRFSGSGSGTSYSLTISSMDTEDAATYYCQQWSSNPPTFGAGTKLELK | 1 | 2.38e+08 | 0.000265 | 62900 | 1 | 1.76e+07 | 56.7 | 0.00139 | 24500 | KD improvement (human alpha-synuclein [5]): 1 fold; Ka (human alpha-synuclein [5]): 1.76e+07 M⁻¹; Kd (human alpha-synuclein [5]): 56.7 nM; koff (human alpha-synuclein [5]): 0.00139 s⁻¹; kon (human alpha-synuclein [5]): 24500 M⁻¹ s⁻¹; Kd (human alpha-synuclein [6]): 4.21 nM
10 | GM37 (antibody, V domains shown, also called GM37wt; GM37 wt) VH: EVQLLESGGGLVQTGGSLRLSCAASGFTFSSYAMTWVRQAPGKGLEWVSAIRSNGDRTDYADSVKGRFTISRDNSQNTLYLQMNSLRAEDTAVYYCAKNWAPFDSWGQGTLVT VL: not shown | – | – | – | – | – | – | – | – | – | binding result (human beta-synuclein [8]): no binding; binding result (human gamma-synuclein [9]): no binding; Kd (human alpha-synuclein [10]): 27 nM and 28 nM; koff (human alpha-synuclein [10]): 0.0192 s⁻¹ and 0.0148 s⁻¹; kon (human alpha-synuclein [10]): 701000 M⁻¹ s⁻¹ and 528000 M⁻¹ s⁻¹; Ka (human alpha-synuclein [11]): 2.33e+08 M⁻¹; Kd (human alpha-synuclein [11]): 4.29 nM
11 | GM37 variant 1 (antibody, V domains shown) VH: EVQLLESGGGLVQTGGSLRLSCAASGFTFSSYAMTWVRQAPGKGLEWVSAIRSSGDRTDYADSVKGRFTISRDNSQNTLYLQMNSLRAEDTAVYYCAKNWAPFDSWGQGTLVT VL: not shown | – | – | – | – | – | – | – | – | – | Kd (human alpha-synuclein [10]): 22 nM; koff (human alpha-synuclein [10]): 0.0137 s⁻¹; kon (human alpha-synuclein [10]): 634000 M⁻¹ s⁻¹
12 | GM37 variant 3 (antibody, V domains shown) VH: EVQLLESGGGLVQTGGSLRLSCAASGFTFSSYAMTWVRQAPGKGLEWVSAIRSHGDRTDYADSVKGRFTISRDNSQNTLYLQMNSLRAEDTAVYYCAKNWAPFDSWGQGTLVT VL: not shown | – | – | – | – | – | – | – | – | – | Kd (human alpha-synuclein [10]): 40 nM; koff (human alpha-synuclein [10]): 0.0228 s⁻¹; kon (human alpha-synuclein [10]): 577000 M⁻¹ s⁻¹
